Experimental data from patent US20240182953, “METHODS AND COMPOSITIONS FOR DETECTING A TARGET RNA” (The Regents of the University of California, published 2024).
Positions count from the first letter of the chain named.

T1: LbuC2c2-dHEPN1/dHEPN2 (Leptotrichia buccalis, UniProt C7NBY4 SEQ:1-1159, R472A,H477A,R1048A,H1053A)
T1 sequence: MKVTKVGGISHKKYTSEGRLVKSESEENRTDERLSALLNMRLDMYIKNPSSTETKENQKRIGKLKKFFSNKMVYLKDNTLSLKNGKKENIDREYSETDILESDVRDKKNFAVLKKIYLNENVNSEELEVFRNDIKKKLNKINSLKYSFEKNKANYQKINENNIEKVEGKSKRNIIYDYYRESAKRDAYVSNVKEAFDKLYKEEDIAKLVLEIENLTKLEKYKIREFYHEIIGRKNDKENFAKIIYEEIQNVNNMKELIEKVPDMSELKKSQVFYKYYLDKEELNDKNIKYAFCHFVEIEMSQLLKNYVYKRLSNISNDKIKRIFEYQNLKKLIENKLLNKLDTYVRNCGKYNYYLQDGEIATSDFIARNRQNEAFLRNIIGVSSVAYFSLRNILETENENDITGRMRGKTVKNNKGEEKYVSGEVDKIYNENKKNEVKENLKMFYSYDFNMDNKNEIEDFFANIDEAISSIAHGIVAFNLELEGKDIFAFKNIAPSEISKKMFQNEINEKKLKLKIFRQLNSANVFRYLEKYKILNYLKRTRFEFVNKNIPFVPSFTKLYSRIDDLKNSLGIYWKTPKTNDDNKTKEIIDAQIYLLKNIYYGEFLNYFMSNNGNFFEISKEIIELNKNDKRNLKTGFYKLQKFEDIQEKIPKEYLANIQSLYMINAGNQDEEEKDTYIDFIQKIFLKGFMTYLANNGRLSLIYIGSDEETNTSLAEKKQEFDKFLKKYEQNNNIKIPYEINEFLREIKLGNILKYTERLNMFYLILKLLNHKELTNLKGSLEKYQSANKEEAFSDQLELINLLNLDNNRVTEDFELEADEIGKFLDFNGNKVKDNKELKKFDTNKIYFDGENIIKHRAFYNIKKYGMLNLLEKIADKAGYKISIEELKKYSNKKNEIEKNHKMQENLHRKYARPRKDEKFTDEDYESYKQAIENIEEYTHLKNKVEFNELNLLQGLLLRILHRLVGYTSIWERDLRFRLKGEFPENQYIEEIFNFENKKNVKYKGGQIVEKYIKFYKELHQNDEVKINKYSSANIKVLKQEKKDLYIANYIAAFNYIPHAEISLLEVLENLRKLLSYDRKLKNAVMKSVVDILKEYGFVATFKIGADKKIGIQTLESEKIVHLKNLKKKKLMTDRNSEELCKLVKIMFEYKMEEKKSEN

T2: LbuC2c2-R1079A (Leptotrichia buccalis, UniProt C7NBY4 SEQ:1-1159, R1079A)
T2 sequence: T1 sequence with A472R, A477H, A1048R, A1053H, R1079A

B1: crRNA-A_GG (mature) ; target A ssRNA (ssRNA ; ssRNA)
RNA 1: GGCCACCCCAAAAAUGAAGGGGACUAAAACAGGGGCAGAGAUGAUGACCCU
RNA 2: GGCUCAUUUGCAGGGUUUAGCCAAAAGGGUCAUCAUCUCUGCCCCCUCUGCUGAUGCCCC
B2: crRNA-A_GA (mature) (ssRNA)
RNA: B1 RNA 1 with G2A

Legend:
[1] = target: T1, LbuC2c2-dHEPN1/dHEPN2; experiment: EMSA; ssRNA A, no Mg listed in EMSA buffer, 37 C; which A variant was used not stated; details: tags: His6-MBP removed by TEV, label: 5'-32P, hairpin
Method: (§1) The quantified data were fit to standard binding isotherms. Error bars represent the standard deviation from three independent experiments. […] Three independent experiments were conducted as described in the Methods. The gel was cropped for clarity. c, Quantified binding data from (b) were fitted to standard binding […]. Error bars represent the standard deviation from three independent experiments. […] The quantified data were fit to standard binding isotherms. Error bars represent the standard deviation from three independent experiments. Measured dissociation constants from three independent experiments (mean±sd) were 4.65±0.6 nM (LbuC2c2-WT) and 2.52±0.5 nM (LbuC2c2-R1079A). It is of note that these binding affinities differ from panel a. This difference is accounted for in a slight difference in the 5′ sequence of the guide with panel a guides beginning with a 5′-GGCCA . . . and panel d 5′-GACCA. While the native sequence guide (5′-GACCA) binds tighter to LbuC2c2, no difference is seen in the RNA targeting efficiencies of these guide variants (Extended Data FIG. 6c).
Electrophoretic mobility-shift assays. […]

[2] = target: T2, LbuC2c2-R1079A; experiment: filter; retains crRNA binding; Kd in truncated legend; details: tags: His6-MBP removed by TEV; label: 5'-32P; hairpin
Method: as §1
crRNA filter-binding assays. Filter binding assays was carried out in RNA processing buffer (20 mM HEPES pH 6.8, 50 mM KCl, 5 mM MgCl₂, […], 0.01% Igepal CA-630 and 5% glycerol). LbuC2c2 was incubated with radiolabeled crRNA (<0.1 nM) for 1 hr at 37° C. […]

Binder | Kd [1] | binding result [2]
B1 | 1.62 nM | –
B2 | – | binds
